The values below come from patent US12383631.

Test [1] deals with human PD-1 on Jurkat T effector cells (human) (UniProt Q15116).
In test [2] the target is T1, IL-18 receptor (IL-18Rα/IL-18Rβ) on cells (HEK-Blue IL18R reporter cells, NK-92, KG-1) (human) (UniProt Q13478).
T1 sequence (looked up) 1: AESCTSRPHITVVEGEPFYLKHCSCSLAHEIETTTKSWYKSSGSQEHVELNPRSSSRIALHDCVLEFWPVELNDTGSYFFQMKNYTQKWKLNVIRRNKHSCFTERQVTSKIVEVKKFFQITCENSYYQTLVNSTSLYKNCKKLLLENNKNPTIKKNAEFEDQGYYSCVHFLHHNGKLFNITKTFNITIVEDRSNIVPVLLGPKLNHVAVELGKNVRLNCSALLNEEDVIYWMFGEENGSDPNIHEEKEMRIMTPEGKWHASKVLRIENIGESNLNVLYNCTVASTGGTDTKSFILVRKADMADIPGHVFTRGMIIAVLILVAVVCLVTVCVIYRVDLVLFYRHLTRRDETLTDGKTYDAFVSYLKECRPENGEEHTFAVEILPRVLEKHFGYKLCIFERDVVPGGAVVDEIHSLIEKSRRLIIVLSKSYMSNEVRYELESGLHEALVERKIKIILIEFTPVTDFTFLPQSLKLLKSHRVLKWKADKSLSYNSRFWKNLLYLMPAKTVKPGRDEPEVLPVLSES
T1 sequence (looked up) 2: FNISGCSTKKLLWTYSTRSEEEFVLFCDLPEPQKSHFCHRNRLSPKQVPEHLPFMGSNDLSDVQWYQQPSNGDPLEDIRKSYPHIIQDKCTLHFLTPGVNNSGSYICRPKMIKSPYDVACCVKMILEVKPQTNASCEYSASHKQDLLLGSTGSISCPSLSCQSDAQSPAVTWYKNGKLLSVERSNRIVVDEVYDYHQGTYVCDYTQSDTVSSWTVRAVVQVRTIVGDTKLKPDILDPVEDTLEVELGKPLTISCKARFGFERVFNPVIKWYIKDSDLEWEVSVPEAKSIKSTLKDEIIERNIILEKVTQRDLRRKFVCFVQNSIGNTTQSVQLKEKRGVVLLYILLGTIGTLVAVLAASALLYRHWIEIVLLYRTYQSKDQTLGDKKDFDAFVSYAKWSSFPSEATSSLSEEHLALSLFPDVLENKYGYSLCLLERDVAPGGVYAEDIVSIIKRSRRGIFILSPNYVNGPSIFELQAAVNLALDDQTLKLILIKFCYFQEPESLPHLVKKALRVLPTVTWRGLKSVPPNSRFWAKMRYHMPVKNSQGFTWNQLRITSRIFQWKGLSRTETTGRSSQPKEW
In words: cell-based or functional assay.

Test [3] addresses recombinant Human Fc gamma RI/CD64 Protein (R&D systems, 1257-FC-050) (human) (UniProt P12314). Description: ELISA; immunocytokine coated, receptor titrated, anti-His-HRP. (An ELISA detects its analyte on a solid surface through an enzyme-linked reagent.)
The target in test [4] is recombinant Human Fc gamma RIIA/CD32a (H167) Protein (R&D systems, 9595-CD-050) (human) (UniProt P12318). The description is as above.
Chain of recombinant Human Fc gamma RIIA/CD32a (H167) Protein (R&D systems, 9595-CD-050) (human) (P12318 36-218 limits assumed): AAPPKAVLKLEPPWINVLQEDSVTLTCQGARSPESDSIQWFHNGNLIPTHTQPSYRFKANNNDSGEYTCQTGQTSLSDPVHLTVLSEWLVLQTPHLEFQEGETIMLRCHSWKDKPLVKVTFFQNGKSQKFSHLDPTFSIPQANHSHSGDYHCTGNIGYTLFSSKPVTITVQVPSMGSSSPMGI
The target of test [5] is recombinant Human Fc gamma RIIB/CD32b Avi-tag Protein (R&D systems, AVI1875-050) (human) (UniProt P31994). Described as above.
Chain of recombinant Human Fc gamma RIIB/CD32b Avi-tag Protein (R&D systems, AVI1875-050) (human) (P31994 46-217 limits assumed): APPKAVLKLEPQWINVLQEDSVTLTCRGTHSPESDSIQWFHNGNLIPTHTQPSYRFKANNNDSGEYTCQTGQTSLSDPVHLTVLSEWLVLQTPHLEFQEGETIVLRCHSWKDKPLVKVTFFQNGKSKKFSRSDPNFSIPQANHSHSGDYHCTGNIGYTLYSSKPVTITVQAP
The target in test [6] is recombinant Human Fc gamma RIIIA/CD16a Protein (R&D systems, 4325-FC-050) (human) (UniProt P08637). Described as above.
Chain of recombinant Human Fc gamma RIIIA/CD16a Protein (R&D systems, 4325-FC-050) (human) (P08637 17-208 limits assumed): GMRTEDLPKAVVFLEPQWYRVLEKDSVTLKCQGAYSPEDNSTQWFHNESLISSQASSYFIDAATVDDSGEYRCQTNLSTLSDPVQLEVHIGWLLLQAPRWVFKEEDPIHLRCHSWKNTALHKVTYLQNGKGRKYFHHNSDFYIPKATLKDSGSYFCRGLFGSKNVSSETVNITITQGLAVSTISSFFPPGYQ
Test [7] concerns the target recombinant Human Fc gamma RI/CD64 Protein (R&D systems, 1257-FC-050) (human) (UniProt P12314). Description: ELISA: immunocytokine coated on the plate (2.5 ug/ml), His-tagged recombinant human Fc gamma RI/CD64 titrated in solution (x-axis), anti-His-HRP/TMB, 450 nm.
Test [8] addresses human IL-18BP-His (human) (UniProt O95998). Description: AlphaLISA of free IL-18BP after incubation with IL-18BP-His. For orientation: Bead proximity is the source of the signal in Alpha formats.
Test [9] has the same target. In words: AlphaLISA of free (unbound) IL-18BP: immunocytokine titrated (x-axis) and pre-incubated with human IL-18BP-His; anti-IL-18BP acceptor beads, biotinylated anti-IL-18BP antibody, streptavidin donor beads; the signal falls as IL-18BP is bound.
The target of test [10] is human PD-1 on Jurkat T effector cells (human) (UniProt Q15116). This is another data set of the same source.
Test [11] has as its target recombinant Human Fc gamma RI/CD64 Protein (R&D systems, 1257-FC-050) (human) (UniProt P12314). Description: ELISA; antibody coated, receptor titrated, anti-His-HRP.
For test [12], the target named is recombinant Human Fc gamma RIIA/CD32a (H167) Protein (R&D systems, 9595-CD-050) (human) (UniProt P12318). Described as above.
The target of test [13] is recombinant Human Fc gamma RIIB/CD32b Avi-tag Protein (R&D systems, AVI1875-050) (human) (UniProt P31994). The description is as above.
Test [14] deals with recombinant Human Fc gamma RIIIA/CD16a Protein (R&D systems, 4325-FC-050) (human) (UniProt P08637). The test is described as above.
Test [15] deals with recombinant biotinylated human FcRn (human) (UniProt P55899). Description: AlphaLISA competition at pH 6; competitor: human IgG on acceptor beads.
Chain of recombinant biotinylated human FcRn (human) (P55899 24-297 limits assumed, form in doubt, chain 1 of 2): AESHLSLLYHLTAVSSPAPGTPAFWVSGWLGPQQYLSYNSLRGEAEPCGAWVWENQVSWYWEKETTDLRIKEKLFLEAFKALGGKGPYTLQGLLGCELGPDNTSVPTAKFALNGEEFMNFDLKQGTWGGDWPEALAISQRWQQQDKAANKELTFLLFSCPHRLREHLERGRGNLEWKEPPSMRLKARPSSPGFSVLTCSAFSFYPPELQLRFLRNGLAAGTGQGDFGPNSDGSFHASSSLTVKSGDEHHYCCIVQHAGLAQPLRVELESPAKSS
Chain of recombinant biotinylated human FcRn (human) (chain, as listed by the source limits assumed, form in doubt, chain 2 of 2): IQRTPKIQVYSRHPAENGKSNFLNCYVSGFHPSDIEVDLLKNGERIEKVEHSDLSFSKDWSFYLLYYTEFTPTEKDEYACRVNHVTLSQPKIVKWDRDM
The target in test [16] is recombinant Human Fc gamma RI/CD64 Protein (R&D systems, 1257-FC-050) (human) (UniProt P12314). Description: ELISA: antibody coated on the plate (2.5 ug/ml), His-tagged recombinant human Fc gamma RI/CD64 titrated in solution (x-axis), anti-His-HRP/TMB, 450 nm.
Chain of recombinant Human Fc gamma RI/CD64 Protein (R&D systems, 1257-FC-050) (human) (P12314 16-288 limits assumed): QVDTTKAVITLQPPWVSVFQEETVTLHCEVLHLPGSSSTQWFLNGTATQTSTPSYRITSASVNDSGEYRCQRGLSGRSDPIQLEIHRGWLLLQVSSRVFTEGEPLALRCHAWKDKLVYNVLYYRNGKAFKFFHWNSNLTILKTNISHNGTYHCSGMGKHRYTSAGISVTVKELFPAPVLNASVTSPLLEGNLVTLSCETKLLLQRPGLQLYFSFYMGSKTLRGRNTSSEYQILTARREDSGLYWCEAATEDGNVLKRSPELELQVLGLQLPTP
Test [17] deals with recombinant biotinylated human FcRn (human) (UniProt P55899). Description: FcRn competition AlphaLISA at pH 6: test antibody titrated (x-axis) against human IgG-coated acceptor beads (reference IgG) for biotinylated human FcRn on streptavidin donor beads; loss of signal.

pKd: −log10 of the molar value. Like-named read-outs stand apart in the source and are kept apart here.

Chain of human IL-18BP-His (human) (O95998 31-194 limits assumed): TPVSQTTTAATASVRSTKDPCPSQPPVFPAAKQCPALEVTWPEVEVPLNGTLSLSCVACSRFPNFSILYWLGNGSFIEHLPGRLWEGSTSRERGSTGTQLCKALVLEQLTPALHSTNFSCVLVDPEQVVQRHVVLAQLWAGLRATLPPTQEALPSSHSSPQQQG
Chain of human PD-1 on Jurkat T effector cells (human) (Q15116 25-288 limits assumed): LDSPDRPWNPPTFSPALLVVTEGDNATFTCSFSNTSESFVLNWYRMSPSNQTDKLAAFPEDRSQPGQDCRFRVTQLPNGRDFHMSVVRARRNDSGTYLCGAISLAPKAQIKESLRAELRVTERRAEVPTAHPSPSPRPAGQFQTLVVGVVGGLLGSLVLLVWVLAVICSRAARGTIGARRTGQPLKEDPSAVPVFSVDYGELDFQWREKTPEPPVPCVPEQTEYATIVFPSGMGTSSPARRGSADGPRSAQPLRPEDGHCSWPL
Chain of LZM-009 (antibody) (VH): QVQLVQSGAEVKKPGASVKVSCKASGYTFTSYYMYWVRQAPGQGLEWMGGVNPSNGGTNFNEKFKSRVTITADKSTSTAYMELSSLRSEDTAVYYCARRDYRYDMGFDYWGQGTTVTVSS
Chain of LZM-009 (antibody) (VL): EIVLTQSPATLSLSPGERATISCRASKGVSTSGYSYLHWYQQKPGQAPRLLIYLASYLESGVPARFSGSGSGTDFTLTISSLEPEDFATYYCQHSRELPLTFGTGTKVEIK

The term pKd denotes the negative decadic logarithm of the Kd, by convention in mol/L. Usually EC50 (read off the curve) stands for the concentration needed to bring the measured effect to its halfway point. For the substance “Composition A (LZM-009 conjugated to IL-18 polypeptide of SEQ ID NO: 30) (from UniProt Q14116 37-193)”, the EC50 (read off the curve), NFAT-RE luciferase signal (PD-1/PD-L1 Blockade Bioassay) in [1] was found to be 3 nM. Besides, in test [2], the EC50, IFNγ secretion, NK92 cells is 0.073 nM. In [2], this substance had an EC50, IFNγ secretion, PD-1 positive KG-1 cells of 0.0012 nM. The EC50, IFNγ secretion, parental KG-1 cells in [2] is 0.011 nM. Moreover, the pKd was 9.60 in [3], 5.72 in test [4], 6.36 in test [5] and 6.22 in test [6]. Further, the EC50 (read off the curve) in [7] was 0.3 nM.

On to “Composition C (Trastuzumab/Herceptin conjugated to IL-18 polypeptide of SEQ ID NO: 30)”, for which, in test [2], the EC50, IFNγ secretion, NK92 cells was found to be 0.027 nM; the EC50, IFNγ secretion, PD-1 positive KG-1 cells came out at 0.0096 nM; the EC50, IFNγ secretion, parental KG-1 cells is 0.0166 nM. Besides, in test [8], the pKd was 7.98. Besides, the pKd in [6] is 5.48. In test [9], this substance yielded an IC50 (read off the curve) of 10 nM.

In test [10], LZM-009 (antibody) showed an EC50 (read off the curve), NFAT-RE luciferase signal (PD-1/PD-L1 Blockade Bioassay) of 2 nM. In addition, the pKd was 9.50 in test [11]; 5.87 in [12]; 5.58 in [13]; 5.77 in [14]; 8.22 in test [15]. The 50% effective concentration (EC50 (read off the curve)) in test [16] is 0.2 nM. Also, the IC50 (read off the curve) in test [17] was 5 nM.
